Article PMC7015811

Key:
chicken CALHM1 (chicken) = assay: cryo-EM structure
[1] = target: chCALHM1 hCALHM2 chimera (chicken | human) (UniProt Q9HA72); assay: cryo-EM structure

stoichiometry N (chicken CALHM1 (chicken))	stoichiometry N [1]	Substance
8		chicken CALHM1 (natural protein)
	11	chCALHM1 hCALHM2 chimera (from UniProt Q9HA72 205-323)
